The source of these data is PMC10897196, “Structure–activity characteristics of phenylalanine analogs selectively transported by L-type amino acid transporter 1 (LAT1)” (Scientific Reports, 2024).

Values joined by “and” are separate entries in the source; they are usually repeats but may differ in a detail not shown here. Identical values can stand only once.

Series [1] can be described thus: Plasma concentration-time profile in normal mice after intravenous administration. It is filed as in vivo. As to conditions: C57BL/6J mice, i.v., 15, 30, 60, 120 min; 2-F-Tyr 15.6 mg/kg, bicyclic-Phe 15 mg/kg. As to the method: The blood samples were collected at 15, 30, 60, and 120 min post-administration into lithium heparin-coated tubes (BD, New Jersey, USA) and then centrifuged at 1,500 ×g for 10 min at 23 °C. The resulting plasma was stored at −80 °C pending analysis by HPLC.
(§1) HPLC analyses were conducted as previously described. In brief, tumors and small intestines were homogenized in ice-cold PBS (3 times the tissue weight, v/w). The homogenates were then centrifuged at 15,000 ×g for 40 min at 4 °C. A 10 μL aliquot of the tissue supernatant or plasma was mixed with 190 μL of acetonitrile (MeCN) to precipitate proteins. This mixture was subsequently centrifuged at 15,000 ×g for 30 min at 4 °C. The resulting supernatant (100 μL) was dried, and the residue was reconstituted in 20 μL of 400 mM sodium borate (pH 8.0). Finally, 5 μL of 40 mM 4-fluoro-7-nitro-2,1,3-benzoxadiazole (NBD-F) in MeCN was added for fluorescence derivatization. HPLC analysis was carried out using a NANOSPACE SI-2 HPLC system (Shiseido, Tokyo, Japan) equipped with a fluorescence detector. […] The mobile phase consisted of MeCN, water, and trifluoroacetic acid (TFA) in a 27.5:72.5:0.05 (v/v/v) ratio, delivered at a flow rate of 200 μL/min.

The nature of series [2]: Tissue accumulation (plasma, tumor, small intestine) in B16-F10 tumor-bearing mice, HPLC. It is filed as in vivo. As to the method: Female C57BL/6J mice were subcutaneously injected with 2 × 10^6 B16-F10 cells. The cells were prepared in a mixture containing a 1:1 volume ratio of phosphate-buffered saline (PBS) and Matrigel (Corning, New York, USA), with the total injection volume being 200 μL, administered into the dorsal flank. Tumor growth was measured bi-daily using calipers until tumors reached a size of approximately 300 ~ 500 mm^3, at which point they were deemed palpable. […] Blood samples were collected at 30 and 60 min post-administration. Then both the tumors and small intestines were excised and weighed for subsequent analysis by HPLC.
as §1

Substrate in series [3]: N[C@@H](Cc1ccccc1)C(=O)O
Put plainly: Efflux of pre-loaded L-[14C]alanine from HEK293-hLAT2 cells induced by extracellular compounds. It is filed as cell-based, human. As to conditions: other: LAT2, L-[14C]alanine efflux, 1 min; mean ± S.E.M., n = 3; 37.0 °C. As to the method: (§2) We evaluated the efflux of pre-loaded L-[^14C]leucine from LAT1 and pre-loaded L-[^14C]alanine from LAT2 induced by extracellularly applied compounds.
(§3) Efflux experiments were performed as described previously. Cells cultured 48 h were pre-loaded with 5 μM L-[^14C]leucine or L-[^14C]alanine for 10 min at 37 °C. The cells were then washed, and the efflux was induced by incubating cells for 1 min in either the absence or presence of non-radiolabeled test compounds at indicated concentrations. The efflux time of 1 min fell within the linear range of time-dependent substrate efflux mediated by LAT1 and LAT2 (Supplementary Fig. S2). Following incubation, the medium was collected and radioactivity was measured in both the medium and the cells. Efflux was quantified as the percentage of radioactivity released into the medium, calculated using the formula: radioactivity of medium/(radioactivity of medium + radioactivity of cells) × 100%.
(§4) The kinetic parameters for the efflux of L-[^14C]leucine or L-[^14C]alanine induced by various concentrations of extracellularly-applied test compounds were analyzed. The baseline efflux values—those obtained in the absence of test compounds—were subtracted from the values measured in the presence of the compounds. The resultant data were fitted to Michaelis–Menten kinetics to determine the Km and Vmax by nonlinear regression analysis using “enzyme kinetics-velocity as a function of substrate” module within GraphPad Prism software.

Substrate in series [4]: N[C@]1(C(=O)O)CCc2ccccc2C1
The series is described as above. It is filed as cell-based, human. As to conditions: other: LAT2, L-[14C]alanine efflux, 1 min; mean ± S.E.M., n = 3; 37.0 °C. The procedure: as §2, §3, §4

Substrate in series [5]: N[C@@H](Cc1ccccc1I)C(=O)O
The description is as above. It is filed as cell-based, human. As to conditions: other: LAT2, L-[14C]alanine efflux, 1 min; mean ± S.E.M., n = 3; 37.0 °C. As to the method: as §2, §3, §4

Substrate in series [6]: C[C@](N)(Cc1ccccc1)C(=O)O
The series is described as above. It is filed as cell-based, human. As to conditions: other: LAT2, L-[14C]alanine efflux, 1 min; mean ± S.E.M., n = 3; 37.0 °C. The procedure: as §2, §3, §4

As to `N[C@@H](Cc1ccc(O)cc1F)C(=O)O` [2-F-Tyr, 2-Fluoro-L-tyrosine, reference compound], in series [1], the “Plasma concentration (in words)” value is listed as “time-dependent decreases in plasma concentration”. Further, the “Small intestine-to-plasma ratio (I/P) (in words)” value in series [2] (30 and 60 min after i.v., equimolar doses) was “considerably higher for 2-F-Tyr than for bicyclic-Phe”. In series [2] (i.v., normalized to tissue weight / plasma volume, 2-F-Tyr at 60 min), the “Concentration in tumor compared with plasma” value is recorded as “higher in the tumor than in plasma”.

B1: human LAT2 (Homo sapiens) (protein)
chain: MEEGARHRNNTEKKHPGGGESDASPEAGSGGGGVALKKEIGLVSACGIIVGNIIGSGIFVSPKGVLENAGSVGLALIVWIVTGFITVVGALCYAELGVTIPKSGGDYSYVKDIFGGLAGFLRLWIAVLVIYPTNQAVIALTFSNYVLQPLFPTCFPPESGLRLLAAICLLLLTWVNCSSVRWATRVQDIFTAGKLLALALIIIMGIVQICKGEYFWLEPKNAFENFQEPDIGLVALAFLQGSFAYGGWNFLNYVTEELVDPYKNLPRAIFISIPLVTFVYVFANVAYVTAMSPQELLASNAVAVTFGEKLLGVMAWIMPISVALSTFGGVNGSLFTSSRLFFAGAREGHLPSVLAMIHVKRCTPIPALLFTCISTLLMLVTSDMYTLINYVGFINYLFYGVTVAGQIVLRWKKPDIPRPIKINLLFPIIYLLFWAFLLVFSLWSEPVVCGIGLAIMLTGVPVYFLGVYWQHKPKCFSDFIELLTLVSQKMCVVVYPEVERGSGTEEANEDMEEQQQPMYQPTPTKDKDVAGQPQP
notes: expressed in transfected cells
As to B1, the Km is 25.21 ± 2.43 µM in series [3]; 30 µM and 29.96 ± 4.00 µM in series [4]; 35.34 ± 1.95 µM in series [5]; 246.49 ± 23.00 µM in series [6].

The Km is the substrate concentration at which the rate is half of its maximum.
